In patent publication US20200199241A1 (Chugai, published 2020):
Residue numbers refer to the chain shown, from its start. Names and notes keep the numbering of the source.

B1: IgG1-F437 (antibody)
heavy: QVQLQESGPGLVKPSETLSLTCAVSGHSISHDHAWSWVRQPPGEGLEWIGFISYSGITNYNPSLQGRVTISRDNSKNTLYLQMNSLRAEDTAVYYCARSLARTTAMDYWGEGTLVTVSSASTKGPSVFPLAPSSKSTSGGTAALGCLVKDYFPEPVTVSWNSGALTSGVHTFPAVLQSSGLYSLSSVVTVPSSSLGTQTYICNVNHKPSNTKVDKKVEPKSCDKTHTCPPCPAPELLGGPSVFLFPPKPKDTLMISRTAEVTCVVVDVSHEDPEVKFNWYVDGVEVHNAKTKPREEQYNSTYRVVSVLQVLHQDWLNGKEYKCKVSNKALPAPIEKTISKAKGQPREPQVYTLPPSRDELTKNQVSLTCLVKGFYPSDIAVEWESNGQPENNYKTTPPVLDSDGSFFLYSKLTVDKSRWQQGNVFSCSVMHEALHYHYTQKSLSLSP
light: not shown
notes: EU numbering; copies: 2 + 2
B2: IgG1-F459 (antibody)
heavy: B1 heavy with A259V, V310P, Q313A, N327G, M430L
light: not shown
notes: EU numbering; copies: 2 + 2
B3: IgG1-F422 (antibody)
heavy: B1 heavy with M254Y, A259P, Q309A, Q313H, E384A
light: not shown
notes: EU numbering; copies: 2 + 2
B4: IgG1-F433 (antibody)
heavy: B1 heavy with A259V, Q313A, N327G
light: not shown
notes: EU numbering; copies: 2 + 2
B5: IgG1-F403 (antibody)
heavy: B1 heavy with A259V, Q309A, M430L, Y436W
light: not shown
notes: EU numbering; copies: 2 + 2
B6: IgG1-F455 (antibody)
heavy: B1 heavy with A259V, M430Y
light: not shown
notes: EU numbering; copies: 2 + 2
B7: IgG1-F443 (antibody)
heavy: B1 heavy with Q313A, M430L
light: not shown
notes: EU numbering; copies: 2 + 2
B8: IgG1-F405 (antibody)
heavy: B1 heavy with A259V, L311P, M430L
light: not shown
notes: EU numbering; copies: 2 + 2
B9: IgG1-F415 (antibody)
heavy: B1 heavy with A259V, N288E, Q309A, M430L
light: not shown
notes: EU numbering; copies: 2 + 2
B10: IgG1-F441 (antibody)
heavy: B1 heavy with Q309T, Q313A, M430L
light: not shown
notes: EU numbering; copies: 2 + 2
B11: IgG1-F426 (antibody)
heavy: B1 heavy with A259V
light: not shown
notes: EU numbering; copies: 2 + 2
B12: IgG1-F465 (antibody)
heavy: B1 heavy with A259V, N288E, N327G, M430L
light: not shown
notes: EU numbering; copies: 2 + 2
B13: IgG1-F463 (antibody)
heavy: B1 heavy with Q309A, V310P, M430L
light: not shown
notes: EU numbering; copies: 2 + 2
B14: IgG1-F460 (antibody)
heavy: B1 heavy with A259V, Q309A, V310P, N327G, M430L
light: not shown
notes: EU numbering; copies: 2 + 2
B15: IgG1-F438 (antibody)
heavy: B1 heavy with M430Y
light: not shown
notes: EU numbering; copies: 2 + 2
B16: IgG1-F442 (antibody)
heavy: B1 heavy with Q309T, Q313H, M430L
light: not shown
notes: EU numbering; copies: 2 + 2
B17: IgG1-F412 (antibody)
heavy: B1 heavy with A259V, Q309G, M430L
light: not shown
notes: EU numbering; copies: 2 + 2
B18: IgG1-F457 (antibody)
heavy: B1 heavy with S241K, A259V, Q309T, V310P, M430L
light: not shown
notes: EU numbering; copies: 2 + 2
B19: IgG1-F411 (antibody)
heavy: B1 heavy with A259V, Q309N, M430L
light: not shown
notes: EU numbering; copies: 2 + 2
B20: IgG1-F418 (antibody)
heavy: B1 heavy with S241K, M254Y, A259P, Q309P, N327G, M430Y
light: not shown
notes: EU numbering; copies: 2 + 2
B21: IgG1-F447 (antibody)
heavy: B1 heavy with N288E, M430L
light: not shown
notes: EU numbering; copies: 2 + 2
B22: IgG1-F413 (antibody)
heavy: B1 heavy with A259V, Q309P, M430L
light: not shown
notes: EU numbering; copies: 2 + 2
B23: IgG1-F408 (antibody)
heavy: B1 heavy with A259V, N288E, Q309T, M430L
light: not shown
notes: EU numbering; copies: 2 + 2
B24: IgG1-F409 (antibody)
heavy: B1 heavy with A259V, Q309T, P389E, M430L
light: not shown
notes: EU numbering; copies: 2 + 2
B25: IgG1-F407 (antibody)
heavy: B1 heavy with A259V, L311R, M430L
light: not shown
notes: EU numbering; copies: 2 + 2
B26: IgG1-F401 (antibody)
heavy: B1 heavy with S241K, M254Y, A259P, D272F, N288E, Q309T, V310P, P389E, M430I
light: not shown
notes: EU numbering; 'N431Y' as printed, probably N434Y; copies: 2 + 2
B27: IgG1-F456 (antibody)
heavy: B1 heavy with A259V, M430F
light: not shown
notes: EU numbering; copies: 2 + 2
B28: IgG1-F451 (antibody)
heavy: B1 heavy with A259S, Q309A, M430L
light: not shown
notes: EU numbering; copies: 2 + 2
B29: IgG1-F406 (antibody)
heavy: B1 heavy with L311R, M430L
light: not shown
notes: EU numbering; copies: 2 + 2
B30: IgG1-F466 (antibody)
heavy: B1 heavy with T258E, A259V, Q309T
light: not shown
notes: EU numbering; copies: 2 + 2

The binders below were run against T1, human FcRn (soluble human FcRn complexed with β2-microglobulin) (human, UniProt P61769 21-119, limits assumed) (assay: SPR, pH 7.0;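 also: antibodies captured on a Protein L sensor chip with human FcRn injected as analyte, KD calculated from fitted association and dissociation rate constants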).
T1 construct: also called hFcRn

Kd [nM]	Binder
57	B1
13	B2
180	B3
60	B4
51	B5
27	B6
55	B7
170	B8
56	B9
180	B10
84	B11
21	B12
130	B13
47	B14
36	B15
200	B16
88	B17
40	B18
130	B19
620	B20
14	B21
120	B22
250	B23
200	B24
160	B25
6.9	B26
34	B27
100	B28
150	B29
350	B30
